# Assay results: the supplement of paper PMC10567573
# B1: BTBD1 (parent)
# chain: FVLGKGRGAAAAGGPQRIPAHRFV
# Variants of: B1
# Assay: protein stability index of a GFP-peptide fusion (GPS, HEK-293T) (PSI 1-6); higher = more stable
# Conditions: c terminus: a fixed tail appended
# 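Note: lentivirally expressed fusions sorted by FACS into six bins by GFP to DsRed ratio, PSI derived from sequencing read proportions per bin multiplied by bin number.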
row,Variant,protein stability index
1,FVLGKGRGAPAAGGPQRIPAHRFV,1.95
2,FVLGKGRGACAAGGPQRIPAHRFV,1.36
3,FVLGKGRGAHAAGGPQRIPAHRFV,1.68
4,FVLGKGRGATAAGGPQRIPAHRFV,1.91
5,FVLGKGRGAIAAGGPQRIPAHRFV,1.52
6,FVLGKGRGAQAAGGPQRIPAHRFV,2.03
7,FVLGKGRGARAAGGPQRIPAHRFV,1.91
8,FVLGKGRGASAAGGPQRIPAHRFV,2
9,FVLGKGRGAFAAGGPQRIPAHRFV,2.27
10,FVLGKGRGAVAAGGPQRIPAHRFV,1.43
11,FVLGKGRGADAAGGPQRIPAHRFV,1.64
12,FVLGKGRGAMAAGGPQRIPAHRFV,1.34
13,FVLGKGRGAYAAGGPQRIPAHRFV,1.79
14,FVLGKGRGALAAGGPQRIPAHRFV,1.46
15,FVLGKGRGAEAAGGPQRIPAHRFV,1.67
16,FVLGKGRGANAAGGPQRIPAHRFV,1.96
17,FVLGKGRGAKAAGGPQRIPAHRFV,2.08
18,FVLGKGRGAWAAGGPQRIPAHRFV,1.98
19,FVLGKGRVAAAAGGPQRIPAHRFV,1.39
20,FVLGKGRQAAAAGGPQRIPAHRFV,1.48
21,FVLGKGRYAAAAGGPQRIPAHRFV,1.44
22,FVLGKGRAAAAAGGPQRIPAHRFV,1.33
23,FVLGKGRRAAAAGGPQRIPAHRFV,1.78
24,FVLGKGRDAAAAGGPQRIPAHRFV,2.13

row,Variant,protein stability index
1,FVLGKGRLAAAAGGPQRIPAHRFV,1.69
2,FVLGKGRPAAAAGGPQRIPAHRFV,1.55
3,FVLGKGRHAAAAGGPQRIPAHRFV,2.31
4,FVLGKGRSAAAAGGPQRIPAHRFV,1.2
5,FVLGKGRFAAAAGGPQRIPAHRFV,1.5
6,FVLGKGRNAAAAGGPQRIPAHRFV,1.62
7,FVLGKGRKAAAAGGPQRIPAHRFV,2.02
8,FVLGKGRIAAAAGGPQRIPAHRFV,2.26
9,FVLGKGRTAAAAGGPQRIPAHRFV,2
10,FVLGKGREAAAAGGPQRIPAHRFV,2.01
11,FVLGNGRGAAAAGGPQRIPAHRFV,2.04
12,FVLGVGRGAAAAGGPQRIPAHRFV,1.38
13,FVLGSGRGAAAAGGPQRIPAHRFV,1.98
14,FVLGPGRGAAAAGGPQRIPAHRFV,1.74
15,FVLGQGRGAAAAGGPQRIPAHRFV,1.8
16,FVLGYGRGAAAAGGPQRIPAHRFV,2.95
17,FVLGTGRGAAAAGGPQRIPAHRFV,2.85
18,FVLGFGRGAAAAGGPQRIPAHRFV,1.95
19,FVLGHGRGAAAAGGPQRIPAHRFV,1.95
20,FVLGLGRGAAAAGGPQRIPAHRFV,1.59
21,FVLGIGRGAAAAGGPQRIPAHRFV,1.75
22,FVLGAGRGAAAAGGPQRIPAHRFV,1.2
23,FVLGRGRGAAAAGGPQRIPAHRFV,2.08
24,FVLGMGRGAAAAGGPQRIPAHRFV,2.82

row,Variant,protein stability index
1,FVLGCGRGAAAAGGPQRIPAHRFV,1.66
2,FVLGDGRGAAAAGGPQRIPAHRFV,1.89
3,FVLRKGRGAAAAGGPQRIPAHRFV,2.33
4,FVLWKGRGAAAAGGPQRIPAHRFV,1.2
5,FVLKKGRGAAAAGGPQRIPAHRFV,1.64
6,FVLSKGRGAAAAGGPQRIPAHRFV,1.61
7,FVLLKGRGAAAAGGPQRIPAHRFV,2.39
8,FVLEKGRGAAAAGGPQRIPAHRFV,1.94
9,FVLCKGRGAAAAGGPQRIPAHRFV,1.54
10,FVLMKGRGAAAAGGPQRIPAHRFV,1.38
11,FVLYKGRGAAAAGGPQRIPAHRFV,2.21
12,FVLNKGRGAAAAGGPQRIPAHRFV,2.36
13,FVLPKGRGAAAAGGPQRIPAHRFV,2.59
14,FVLFKGRGAAAAGGPQRIPAHRFV,2.27
15,FVLAKGRGAAAAGGPQRIPAHRFV,1.73
16,FVLQKGRGAAAAGGPQRIPAHRFV,1.4
17,FVLVKGRGAAAAGGPQRIPAHRFV,2.3
18,FVLIKGRGAAAAGGPQRIPAHRFV,1.98
19,FVLTKGRGAAAAGGPQRIPAHRFV,1.46
20,FVLDKGRGAAAAGGPQRIPAHRFV,1.53
21,FVLHKGRGAAAAGGPQRIPAHRFV,2
22,FVLGKGWGAAAAGGPQRIPAHRFV,3.44
23,FVLGKGDGAAAAGGPQRIPAHRFV,1.49
24,FVLGKGHGAAAAGGPQRIPAHRFV,1.7

row,Variant,protein stability index
1,FVLGKGNGAAAAGGPQRIPAHRFV,1.32
2,FVLGKGEGAAAAGGPQRIPAHRFV,1.48
3,FVLGKGPGAAAAGGPQRIPAHRFV,1.98
4,FVLGKGFGAAAAGGPQRIPAHRFV,1.27
5,FVLGKGCGAAAAGGPQRIPAHRFV,3.48
6,FVLGKGIGAAAAGGPQRIPAHRFV,2.15
7,FVLGKGYGAAAAGGPQRIPAHRFV,1.72
8,FVLGKGSGAAAAGGPQRIPAHRFV,2.24
9,FVLGKGTGAAAAGGPQRIPAHRFV,2.23
10,FVLGKGLGAAAAGGPQRIPAHRFV,3.04
11,FVLGKGMGAAAAGGPQRIPAHRFV,2.03
12,FVLGKGKGAAAAGGPQRIPAHRFV,1.17
13,FVLGKGVGAAAAGGPQRIPAHRFV,2.06
14,FVLGKGQGAAAAGGPQRIPAHRFV,1.82
15,FVLGKGRGAAAAVGPQRIPAHRFV,1.36
16,FVLGKGRGAAAAHGPQRIPAHRFV,1.71
17,FVLGKGRGAAAARGPQRIPAHRFV,1.41
18,FVLGKGRGAAAAMGPQRIPAHRFV,2.07
19,FVLGKGRGAAAAQGPQRIPAHRFV,2
20,FVLGKGRGAAAASGPQRIPAHRFV,2.15
21,FVLGKGRGAAAADGPQRIPAHRFV,2.24
22,FVLGKGRGAAAAEGPQRIPAHRFV,2.31
23,FVLGKGRGAAAAIGPQRIPAHRFV,2.25
24,FVLGKGRGAAAALGPQRIPAHRFV,2.14

row,Variant,protein stability index
1,FVLGKGRGAAAAYGPQRIPAHRFV,1.57
2,FVLGKGRGAAAAKGPQRIPAHRFV,1.16
3,FVLGKGRGAAAAFGPQRIPAHRFV,1.3
4,FVLGKGRGAAAAPGPQRIPAHRFV,1.75
5,FVLGKGRGAAAANGPQRIPAHRFV,2.57
6,FVQGKGRGAAAAGGPQRIPAHRFV,1.3
7,FVWGKGRGAAAAGGPQRIPAHRFV,1.14
8,FVTGKGRGAAAAGGPQRIPAHRFV,2.01
9,FVSGKGRGAAAAGGPQRIPAHRFV,3
10,FVVGKGRGAAAAGGPQRIPAHRFV,1.61
11,FVYGKGRGAAAAGGPQRIPAHRFV,1.79
12,FVLGKGRGAAAAGMPQRIPAHRFV,1.88
13,FVLGKGRGAAAAGQPQRIPAHRFV,2.88
14,FVLGKGRGAAAAGSPQRIPAHRFV,2.64
15,FVLGKGRGAAAAGDPQRIPAHRFV,2.64
16,FVLGKGRGAAAAGHPQRIPAHRFV,1.87
17,FVLGKGRGAAAAGCPQRIPAHRFV,2.08
18,FVLGKGRGAAAAGIPQRIPAHRFV,1.26
19,FVLGKGRGAAAAGNPQRIPAHRFV,1.93
20,FVLGKGRGAAAAGVPQRIPAHRFV,1.9
21,FVLGKGRGAAAAGYPQRIPAHRFV,1.07
22,FVLGKGRGAAAAGLPQRIPAHRFV,2.15
23,FVLGKGRGAAAAGRPQRIPAHRFV,1.04
24,FVLGKGRGAAAAGKPQRIPAHRFV,2.83

row,Variant,protein stability index
1,FVLGKLRGAAAAGGPQRIPAHRFV,2.69
2,FVLGKERGAAAAGGPQRIPAHRFV,2.1
3,FVLGKIRGAAAAGGPQRIPAHRFV,2.4
4,FVLGKSRGAAAAGGPQRIPAHRFV,1.44
5,FVLGKMRGAAAAGGPQRIPAHRFV,1.38
6,FVLGKRRGAAAAGGPQRIPAHRFV,1.78
7,FVLGKQRGAAAAGGPQRIPAHRFV,1.91
8,FVLGKYRGAAAAGGPQRIPAHRFV,3.51
9,FVLGKTRGAAAAGGPQRIPAHRFV,1.61
10,FVLGKVRGAAAAGGPQRIPAHRFV,1.69
11,FVLGKHRGAAAAGGPQRIPAHRFV,1.67
12,FVLGKDRGAAAAGGPQRIPAHRFV,1.88
13,FVLGKFRGAAAAGGPQRIPAHRFV,1.02
14,FVLGKARGAAAAGGPQRIPAHRFV,1.97
15,FVLGKNRGAAAAGGPQRIPAHRFV,2.1
16,FVLGKKRGAAAAGGPQRIPAHRFV,1.69
17,FVLGKPRGAAAAGGPQRIPAHRFV,1.82
18,FVLGKGRGTAAAGGPQRIPAHRFV,1.96
19,FVLGKGRGNAAAGGPQRIPAHRFV,1.95
20,FVLGKGRGYAAAGGPQRIPAHRFV,1.87
21,FVLGKGRGCAAAGGPQRIPAHRFV,2.47
22,FVLGKGRGFAAAGGPQRIPAHRFV,1.28
23,FVLGKGRGSAAAGGPQRIPAHRFV,1.57
24,FVLGKGRGGAAAGGPQRIPAHRFV,1.72

row,Variant,protein stability index
1,FVLGKGRGPAAAGGPQRIPAHRFV,1.6
2,FVLGKGRGLAAAGGPQRIPAHRFV,3.31
3,FVLGKGRGVAAAGGPQRIPAHRFV,2.21
4,FVLGKGRGEAAAGGPQRIPAHRFV,2.72
5,FVLGKGRGHAAAGGPQRIPAHRFV,2.08
6,FVLGKGRGDAAAGGPQRIPAHRFV,2.35
7,FVLGKGRGIAAAGGPQRIPAHRFV,1.94
8,FVLGKGRGKAAAGGPQRIPAHRFV,1.92
9,FVLGKGRGAAAWGGPQRIPAHRFV,2.86
10,FVLGKGRGAAAGGGPQRIPAHRFV,2.21
11,FVLGKGRGAAAKGGPQRIPAHRFV,1.82
12,FVLGKGRGAAADGGPQRIPAHRFV,1.91
13,FVLGKGRGAAAMGGPQRIPAHRFV,1.52
14,FVLGKGRGAAAYGGPQRIPAHRFV,1.16
15,FVLGKGRGAAAEGGPQRIPAHRFV,1.84
16,FVLGKGRGAAANGGPQRIPAHRFV,1.78
17,FVLGKGRGAAACGGPQRIPAHRFV,2.54
18,FVLGKGRGAAALGGPQRIPAHRFV,1.38
19,FVLGKGRGAAAQGGPQRIPAHRFV,1.43
20,FVLGKGRGAAAAGGMQRIPAHRFV,2.08
21,FVLGKGRGAAAAGGCQRIPAHRFV,3.79
22,FVLGKGRGAAAAGGKQRIPAHRFV,1.06
23,FVLGKGRGAAAAGGNQRIPAHRFV,1.52
24,FVLGKGRGAAAAGGHQRIPAHRFV,1.85

row,Variant,protein stability index
1,FVLGKGRGAAAAGGDQRIPAHRFV,1.86
2,FVLGKGRGAAAAGGEQRIPAHRFV,1.81
3,FVLGKGRGAAAAGGLQRIPAHRFV,1.43
4,FVLGKGRGAAHAGGPQRIPAHRFV,1.96
5,FVLGKGRGAARAGGPQRIPAHRFV,1.41
6,FVLGKGRGAAKAGGPQRIPAHRFV,1.77
7,FVLGKGRGAANAGGPQRIPAHRFV,1.71
8,FVLGKGRGAAFAGGPQRIPAHRFV,1.04
9,FVLGKGRGAAWAGGPQRIPAHRFV,2.84
10,FVLGKGRGAADAGGPQRIPAHRFV,1.14
11,FVLGKGRGAATAGGPQRIPAHRFV,1.52
12,FVLGKGRGAALAGGPQRIPAHRFV,1.31
13,FVLGKGRGAAYAGGPQRIPAHRFV,1.63
14,FVLGKGRGAACAGGPQRIPAHRFV,2.71
15,FVLGKGRGAAMAGGPQRIPAHRFV,1.73
16,FVLGKGRGAAVAGGPQRIPAHRFV,1.28
17,FVLGKGRGAASAGGPQRIPAHRFV,2.58
18,FVLGKGRGAAIAGGPQRIPAHRFV,1.87
19,FVLGKGRGAAEAGGPQRIPAHRFV,1.94
20,FVLGKGRGAAPAGGPQRIPAHRFV,1.5
